Experimental findings from paper PMC8025780 (Biochemistry, 2020) are described below.

This data set concerns the molecule itself. The data set can be described thus: SAXS.

B1: Staphylococcus aureus GbaA, disulfide cross-linked (oxidized) (natural protein)
chain: MRKDAKENRQRIEEIAHKLFDEEGVENISMNRIAKELGIGMGTLYRHFKDKSDLCYYVIQRDLDIFITHFKQIKDDYHSNYEVMQVSLDYLLQFKIDNKALLQCIEAGNNKLRFYQSAFYQELFDFYYDLFKSDDDTYTKFKTDMLLQSLSTSVFAFQIEHRHISIEAYRNYLLNIYLDEVGRND
modifications: intraprotomer disulfide C55-C104
As usually defined, the stoichiometry N is the number of molecules, sites or subunits per partner or assembly. For the protein B1, the “stoichiometry N” value amounted to 2.
